Assay results reported in patent publication US20230087785A1, “Leucine-Rich Repeat Kinase 2 Allosteric Modulators” (VIB VZW, priority 2020, published 2023).

B1: Nb10 (CA13599) (VHH)
VHH: QVQLVESGGGLVQPGGSLRLSCAASGSIFSIYAMGWYRQAPGKQRELVAAITSGGDTNYADSVKGRFTISRDNAKNTVYLQMNSLKPEDTAVYYCNADHTPAGTFQTFDYWGQGTQVTVSS
B2: Nb13 (CA13602) (VHH)
VHH: QVQLVESGGGLVQPGGSLRLSCAASGSGFSIYAMGWARQAPGRQRELVAAITSGGSTNYADSVKGRFTISRDNAKNTVYLQMNSLKPEDTAVYYCNADITVVAGSTYDYWGQGTQVTVSS
B3: Nb41 (CA14136) (VHH)
VHH: QVQLVESGGGLVQAGGSLRLSCEASVRTFSFYSMGWFRQAPGKEREFVAAIRWTAGSTSYADIVKGRFTISRDNGKNTVVLQMNSLEPEDTGVYYCAAQRGYLVEAASREYDYWGQGTQVTVSS
B4: Nb28 (CA13617) (VHH)
VHH: QVQLVESGGGLVQAGGSLRLSCAASGIIFHWYDMDWYRQAPGKQRELVATITTGGRADYADFVKGRFSISRDNAKTTVYLQMNSLKPEDTAVYYCSFQDHVLRRWGQGTQVTVSS

biological target: T1, LRRK2 COR-B construct (C-terminal part of the COR domain), His6-MBP tagged (human, UniProt Q5S007 1672-1840); experiment: ELISA, antigen coated on the plate, purified Nb detected via its EPEA tag
T1 construct: also called (MBP-)COR-B; not shown: N-terminal His6-MBP-tag of pDEST-566
Description: (§1) We recombinantly expressed and purified the RocCOR, Roc, COR-B and kinase-WD40 (K-WD40) domain constructs of LRRK2 (FIG. 7). Subsequently, we performed an ELISA in which all these domain constructs were coated in parallel next to each other in the same ELISA plate, and where we subsequently detected binding of the 42 purified Nbs. […] To enrich in Nbs directed against the Roc domain we specifically included a selection step with either Roc-GTPγS or Roc-GDP.

Binding result, no binding (tested: not given):
B1
B2
B3
B4

biological target: T2, LRRK2 RocCOR domain construct (human, UniProt Q5S007 1334-1840); experiment: as above
T2 construct: A second construct (residues 1293-1840, N-terminal His6-MBP) was used in certain screening experiments; not shown: N-terminal Twin-Strep-tag; C-terminal His10-tag
T2 sequence: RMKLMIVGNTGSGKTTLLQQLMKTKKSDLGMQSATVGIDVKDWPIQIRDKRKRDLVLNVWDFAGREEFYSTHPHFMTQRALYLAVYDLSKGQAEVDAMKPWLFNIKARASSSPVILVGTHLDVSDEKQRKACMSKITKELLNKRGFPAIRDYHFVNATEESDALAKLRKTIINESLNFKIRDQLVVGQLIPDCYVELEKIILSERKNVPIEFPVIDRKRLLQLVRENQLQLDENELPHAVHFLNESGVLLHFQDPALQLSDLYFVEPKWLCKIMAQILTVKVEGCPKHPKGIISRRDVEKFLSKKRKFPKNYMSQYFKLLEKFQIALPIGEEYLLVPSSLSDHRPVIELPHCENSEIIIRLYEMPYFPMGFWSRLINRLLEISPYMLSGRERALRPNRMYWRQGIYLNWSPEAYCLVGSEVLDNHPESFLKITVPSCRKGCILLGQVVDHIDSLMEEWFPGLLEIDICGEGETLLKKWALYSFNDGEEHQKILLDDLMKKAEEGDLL
Description: as §1

Binding result, no binding (tested: not given):
B1
B2
B3
B4

biological target: T3, LRRK2 Roc domain construct (human, UniProt Q5S007 1329-1520); experiment: as above
T3 construct: not shown: N-terminal His6-tag of pET-28a
T3 sequence: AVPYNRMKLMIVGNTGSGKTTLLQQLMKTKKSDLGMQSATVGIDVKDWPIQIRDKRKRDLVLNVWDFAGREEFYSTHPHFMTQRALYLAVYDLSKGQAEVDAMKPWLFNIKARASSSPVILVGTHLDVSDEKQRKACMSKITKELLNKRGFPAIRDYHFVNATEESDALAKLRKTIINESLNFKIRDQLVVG
Description: as §1

Binding result, no binding (tested: not given):
B1
B2
B3
B4
